In assay [1] the target is T1, recombinant His-tagged human FcγRIa (human, UniProt P12314 16-288, limits assumed).
T1 construct: Bought; captured on anti-His chip; not shown: His tag
Nature of the assay: SPR (Biacore), His-tagged FcγRIa captured on anti-His chip, antibody in solution, resonance units against antibody concentration. The procedure:
Biacore surface chips were covalently linked with anti-His antibody and coated with recombinant His-tagged Fc receptors (A) FcγRIa, (B) FcγRIIa-H, (C) FcγRIIa-R, (D) FcγRIIb, (E) FcγRIIIa-F, or (F) FcγRIIIa-V. The anti-HIV-gp120 antibody IgG1-b12 (ctrl) was included as a reference. Shown are absolute resonance units as determined by Biacore SPR after background subtraction (no Fc receptor flow-cell).
Binding of IgG1-CD27-A-P329R-E345R to human FcγR variants was analyzed using a Biacore surface plasmon resonance (SPR) system and compared to an anti-HIV gp120 antibody IgG1-b12 (ctrl). Biacore Series S Sensor Chips CM5 (Cytiva, Cat #29104988) were covalently coated with anti-His antibody using amine-coupling and His capture kits (Cytiva, Cat #BR100050 and Cat #29234602) according to the manufacturer's instructions. […] After three cycles of buffer, antibody samples were injected for 36 cycles to generate binding curves using antibody ranges of 0-3,000 nM for FcγRI and 0-10,000 nM for the other FcγRs. Each sample that was analyzed on an FcR-coated surface (Active Surface) was also analyzed on a parallel flow-cell without FcR (Reference Surface), which was used for background correction. Dissociation from the anti-His-coated surface was performed by regeneration of the surface using 10 mM Glycine-HCl pH 1.5 (Cytiva, Cat #BR100354). […]
Background: Surface plasmon resonance follows binding to a sensor surface in real time, without labels.

Assay [2] addresses T2, recombinant His-tagged human FcγRIIa (167-His [H]) (human, UniProt P12318 34-218, limits assumed).
T2 construct: Bought; captured on anti-His chip; also called FcγRIIa-H; not shown: His tag
T2 sequence (looked up): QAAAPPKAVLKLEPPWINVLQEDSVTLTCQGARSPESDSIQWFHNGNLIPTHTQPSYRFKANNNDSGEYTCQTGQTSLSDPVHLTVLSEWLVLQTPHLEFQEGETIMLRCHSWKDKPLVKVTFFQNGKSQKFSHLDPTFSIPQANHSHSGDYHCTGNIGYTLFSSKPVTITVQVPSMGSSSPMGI
Briefly: SPR (Biacore), His-tagged FcγRIIa-H captured on anti-His chip, antibody in solution, resonance units against antibody concentration.

In assay [3] the target is T3, recombinant His-tagged human FcγRIIb (human, UniProt P31994 43-217).
T3 construct: Bought; captured on anti-His chip; not shown: His tag
T3 sequence (looked up): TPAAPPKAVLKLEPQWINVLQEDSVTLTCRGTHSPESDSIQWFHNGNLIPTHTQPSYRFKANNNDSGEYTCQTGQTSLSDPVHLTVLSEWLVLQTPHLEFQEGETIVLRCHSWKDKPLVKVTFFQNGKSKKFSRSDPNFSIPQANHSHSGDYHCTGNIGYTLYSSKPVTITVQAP
Briefly: SPR (Biacore), His-tagged FcγRIIb captured on anti-His chip, antibody in solution, resonance units against antibody concentration.

Assay [4] deals with T4, recombinant His-tagged human FcγRIIIa (176-Phe [F]) (human, UniProt P08637 17-208).
T4 construct: Bought; captured on anti-His chip; also called FcγRIIIa-F; not shown: His tag
T4 sequence (P08637 17-208 limits assumed): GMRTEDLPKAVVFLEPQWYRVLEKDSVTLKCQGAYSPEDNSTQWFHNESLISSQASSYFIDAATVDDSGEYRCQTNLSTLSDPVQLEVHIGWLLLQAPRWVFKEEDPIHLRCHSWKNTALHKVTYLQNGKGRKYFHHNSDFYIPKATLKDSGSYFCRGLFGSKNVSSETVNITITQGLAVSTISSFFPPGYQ
Briefly: SPR (Biacore), His-tagged FcγRIIIa-F captured on anti-His chip, antibody in solution, resonance units against antibody concentration.

T1 sequence (P12314 16-288 limits assumed): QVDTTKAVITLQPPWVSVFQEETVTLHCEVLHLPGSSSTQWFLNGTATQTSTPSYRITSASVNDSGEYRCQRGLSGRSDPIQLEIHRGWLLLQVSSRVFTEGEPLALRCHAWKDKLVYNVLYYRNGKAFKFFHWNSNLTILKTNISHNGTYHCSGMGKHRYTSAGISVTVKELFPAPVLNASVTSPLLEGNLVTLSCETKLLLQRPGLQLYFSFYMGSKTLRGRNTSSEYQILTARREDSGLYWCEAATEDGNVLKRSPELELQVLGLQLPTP

B1: IgG1-CD27-A-P329R-E345R (antibody)
heavy: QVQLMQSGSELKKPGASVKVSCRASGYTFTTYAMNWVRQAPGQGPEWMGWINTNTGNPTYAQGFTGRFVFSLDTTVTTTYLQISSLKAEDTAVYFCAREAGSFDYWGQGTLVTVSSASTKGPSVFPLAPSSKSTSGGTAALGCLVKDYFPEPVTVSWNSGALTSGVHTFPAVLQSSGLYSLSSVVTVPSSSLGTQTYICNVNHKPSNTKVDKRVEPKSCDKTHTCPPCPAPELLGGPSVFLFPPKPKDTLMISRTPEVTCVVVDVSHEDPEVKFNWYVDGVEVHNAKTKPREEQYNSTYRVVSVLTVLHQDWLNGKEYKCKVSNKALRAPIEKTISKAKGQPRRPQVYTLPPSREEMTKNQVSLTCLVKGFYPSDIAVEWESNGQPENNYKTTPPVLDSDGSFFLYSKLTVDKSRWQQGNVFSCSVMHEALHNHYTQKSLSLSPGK
light: QSALTQPASVSGSPGQSITISCTGTSSDVYYYNYVSWYQQHPGRAPKLVIYDVSNRPSGVSNRFSGSKSGNTASLTISGLRAEDEADYYCSSYTVNRVWVFGGGTKLTVLGQPKAAPSVTLFPPSSEELQANKATLVCLISDFYPGAVTVAWKADSSPVKAGVETTTPSKQSNNKYAASSYLSLTPEQWKSHRSYSCQVTHEGSTVEKTVAPTECS
notes: also called IgG1-CD27-A-E345R-P329R
As for B1, the binding result in assay [1] is listed as “binds”; in assay [2] it was “no binding (tested: 10,000 nM)”; in assay [3], “no binding (tested: 10,000 nM)”; in assay [4] it was “no binding (tested: 10,000 nM)”.

Source of the values: patent US20250289899A1 (Genmab, published 2025).
